Results on 1 molecule are retold here after US20240199757A1 (UNIVERSITY OF CHICAGO, published 2024).

Residue numbers refer to the chain shown, from its start.

Data set [1] has as its target T1, Full-length murine NT5E (recombinant) (murine, UniProt Q61503 29-552).
T1 construct: also called mNT5E
T1 sequence: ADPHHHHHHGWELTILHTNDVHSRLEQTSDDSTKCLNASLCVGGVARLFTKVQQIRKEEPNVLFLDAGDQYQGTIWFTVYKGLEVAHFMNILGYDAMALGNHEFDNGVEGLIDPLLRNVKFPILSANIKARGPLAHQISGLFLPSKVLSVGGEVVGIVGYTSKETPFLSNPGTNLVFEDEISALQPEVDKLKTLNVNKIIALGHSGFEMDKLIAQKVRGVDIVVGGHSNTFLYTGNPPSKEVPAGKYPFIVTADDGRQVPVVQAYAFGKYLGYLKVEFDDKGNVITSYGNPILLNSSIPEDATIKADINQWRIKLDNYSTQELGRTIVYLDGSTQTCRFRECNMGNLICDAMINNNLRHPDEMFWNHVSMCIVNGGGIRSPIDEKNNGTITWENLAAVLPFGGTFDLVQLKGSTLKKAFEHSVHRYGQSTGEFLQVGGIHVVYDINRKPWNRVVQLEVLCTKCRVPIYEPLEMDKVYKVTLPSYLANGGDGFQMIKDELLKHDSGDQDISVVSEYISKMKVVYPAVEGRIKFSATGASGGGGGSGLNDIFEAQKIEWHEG
The experiment in a line: ELISA, biotinylated NT5E on neutravidin plate, 1 mM ATP; ELISA, recombinant mNT5E, with ATP (EC50ATP). How it is done:
(B) Protein ELISA: Protein-based multipoint ELISA was performed to estimate the affinity of the generated Fabs and IgGs to NT5E. The binding of the Fabs and IgGs to the closed form of NT5E were determined in ELISA buffer (HBST) supplemented with 10 μM zinc chloride and 1 mM ATP while the binding of the same to open form of NT5E were determined in ELISA buffer (HBST) without any cofactors. A fixed concentration of the immobilized target (50 nM) on ELISA plate was incubated with 3-fold serial dilutions of the purified Fabs and IgGs starting from 3 μM and 1 μM respectively for 15 min. The plates were washed and were subsequently incubated with a secondary HRP-conjugated anti-protein L monoclonal antibody (#32420, ThermoFisher, 1:6000 dilution). As with phage ELISA, the plates were again washed, developed with TMB substrate and quenched with 1.0 M HCl, and absorbance (Abs450) was determined. To determine the affinity (EC50), the data were fitted with a non-linear, 4-parameter logistic curve in OriginLab.
In general terms: ELISA stands for enzyme-linked immunosorbent assay.

Data set [2] has as its target T2, Full-length cynomolgus NT5E (recombinant) (cynomolgus, UniProt P21589 27-549 (human entry)).
T2 construct: also called cNT5E; cyno NT5E
T2 chain: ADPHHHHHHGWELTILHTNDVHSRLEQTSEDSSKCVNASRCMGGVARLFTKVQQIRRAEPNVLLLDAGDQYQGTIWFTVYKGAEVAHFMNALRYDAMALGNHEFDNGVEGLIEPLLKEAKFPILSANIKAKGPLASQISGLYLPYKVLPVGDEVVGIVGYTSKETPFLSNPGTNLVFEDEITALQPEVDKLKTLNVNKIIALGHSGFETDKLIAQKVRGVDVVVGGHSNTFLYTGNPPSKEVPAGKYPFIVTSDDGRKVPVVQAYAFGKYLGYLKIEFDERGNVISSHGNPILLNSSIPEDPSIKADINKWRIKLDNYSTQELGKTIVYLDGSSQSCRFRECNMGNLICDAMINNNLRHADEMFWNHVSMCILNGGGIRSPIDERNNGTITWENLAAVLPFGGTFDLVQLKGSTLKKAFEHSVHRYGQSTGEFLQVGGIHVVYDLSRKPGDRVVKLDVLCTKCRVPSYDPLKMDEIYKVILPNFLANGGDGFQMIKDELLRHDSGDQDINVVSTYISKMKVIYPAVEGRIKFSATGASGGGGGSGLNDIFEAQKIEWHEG
The data set is described as follows: SPR, His-captured NT5E, no ATP; SPR, No ATP. The method, then:
All SPR experiments were performed at 25° C. using MASS-1 (Bruker) instrument. hNT5E, mNT5E and cNT5E were immobilized onto a nitrilotriacetic acid (NTA) sensor chip via His-tag. For kinetic experiments, after ligand immobilization, 2-fold serial dilutions of the Fabs were injected. After double-reference subtraction data were analyzed with BiaEvaluation (GE Healthcare) or Sierra Analyser (Bruker) software. The experiments were carried in buffers in presence and absence of 1 mM ATP to compare the kinetic parameters of the Fabs binding to closed and open form of NT5E.
On the technique in general: Surface plasmon resonance follows binding to a sensor surface in real time, without labels.

In data set [3] the target is T3, Full-length human NT5E (recombinant, in-house) (human, UniProt P21589 27-549).
T3 construct: also called hNT5E; hNT5EWT
T3 sequence: T2 chain with T209M, M363T, I476V
The data set is described as follows: DSF thermal shift, 1.5-fold molar excess of Fab, no ATP (NT5E alone 49° C.). How it is done: Thermal stability of samples was analyzed by differential scanning fluorimetry (DSF) using a real-time PCR instrument (Bio-Rad CFX384). Protein samples were mixed with 4× Sypro Orange at a final 4 μM concentration. For target/Fab complexes, 1.5-fold molar excess of Fab was used. All reactions were performed in triplicates in a 384-well plate. Thermal melting curves were monitored from 25° C. to 95° C. in steps of 0.5° C./30 s. Wavelengths of 490 and 575 nm were used for excitation and emission, respectively. The melting temperatures were inferred from the first derivative of the melting curves from the mean of triplicate runs using CFX software provided by the manufacturer.
TABLE 6 Summary of TM for hNT5EWT hNT5EDF, and hNT5E by differential scanning fluorimetry. […] Melting temperatures (TM) are for NT5E only and are represented by the mean of three replicates.

B1: 1789 Fab (Fab, V domains shown)
VH: EVQLVESGGGLVQPGGSLRLSCAASGFNVSYSSIHWVRQAPGKGLEWVASISSSSGYTYYADSVKGRFTISADTSKNTAYLQMNSLRAEDTAVYYCARNYWGWYPFYYFAFDYWGQGTLVTV
VL: DIQMTQSPSSLSASVGDRVTITCRASQSVSSAVAWYQQKPGKAPKLLIYSASSLYSGVPSRFSGSRSGTDFTLTISSLQPEDFATYYCQQGWDYPITFGQGTKVEIKR
For orientation: EC50 means the midpoint of the concentration-response curve. As usually defined, the kon is a measure of how fast the partners come together. Regarding B1, the EC50 in data set [1] came out at 132 nM. In data set [2], the kon turned out to be 140000 M⁻¹ s⁻¹. In data set [3], the “TM of NT5E in the presence of the Fab” value was found to be 48 ° C.
